Measured values taken from patent publication US20170296640A1 (IMMATICS BIOTECHNOLOGIES, published 2017).
No end group written: not given here.

Biological target: T1, HLA-A*02:01 (peptide-receptive MHC class I monomer after UV cleavage of the UV-sensitive ligand) (human)
T1 construct: MHC monomers loaded by UV-ligand exchange and captured on streptavidin plates
Assay: UV ligand-exchange ELISA; exchange yield grade (+ >=10%, ++ >=20%, +++ >=50%, ++++ >=75%)
Excerpt: Candidate peptides for T cell based therapies according to the present invention were further tested for their MHC binding capacity (affinity). The individual peptide-MHC complexes were produced by UV-ligand exchange, where a UV-sensitive peptide is cleaved upon UV-irradiation, and exchanged with the peptide of interest as analyzed. Only peptide candidates that can effectively bind and stabilize the peptide-receptive MHC molecules prevent dissociation of the MHC complexes. To determine the yield of the exchange reaction, an ELISA was performed based on the detection of the light chain (β2m) of stabilized MHC complexes. The assay was performed as generally described in Rodenko et al. (Rodenko et al., 2006).
96 well MAXISorp plates (NUNC) were coated over night with 2 ug/ml streptavidin in PBS at room temperature, washed 4× and blocked for 1 h at 37° C. in 2% BSA containing blocking buffer. Refolded HLA-A*02:01/MLA-001 monomers served as standards, covering the range of 15-500 ng/ml. Peptide-MHC monomers of the UV-exchange reaction were diluted 100 fold in blocking buffer. Samples were incubated for 1 h at 37° C., washed four times, incubated with 2 ug/ml HRP conjugated anti-β2m for 1 h at 37° C., washed again and detected with TMB solution that is stopped with […]. Absorption was measured at 450 nm. Candidate peptides that show a high exchange yield (preferably higher than 50%, most preferred higher than 75%) are generally preferred for a generation and production of antibodies or fragments thereof, and/or T cell receptors or fragments thereof, as they show sufficient avidity to the MHC molecules and prevent dissociation of the MHC complexes.

Row | peptide exchange yield | Binder
1 | 50 to 75% | NLLEQFILL [NLLEQFILL (SEQ ID NO: 248)]
2 | 20 to 50% | ALLELENSV [ALLELENSV (SEQ ID NO: 219)]
3 | 20 to 50% | FLAEAPTAL [FLAEAPTAL (SEQ ID NO: 220)]
4 | 50 to 75% | KLPVPLESV [KLPVPLESV (SEQ ID NO: 246)]
5 | 20 to 50% | KVVSNLPAI [KVVSNLPAI (SEQ ID NO: 216)]
6 | ≥ 75% | FLYSETWNI [FLYSETWNI (SEQ ID NO: 254)]
7 | 50 to 75% | IVMGAIPSV [IVMGAIPSV (SEQ ID NO: 231)]
8 | 50 to 75% | ALDQFLEGI [ALDQFLEGI (SEQ ID NO: 218)]
9 | 50 to 75% | ALKKHLTSV [ALKKHLTSV (SEQ ID NO: 22)]
10 | ≥ 75% | FLPETRIMTSV [FLPETRIMTSV (SEQ ID NO: 261)]
11 | 50 to 75% | ILEPFLPAV [ILEPFLPAV (SEQ ID NO: 244)]
12 | 50 to 75% | KLIQLPVVYV [KLIQLPVVYV (SEQ ID NO: 245)]
13 | 20 to 50% | IIAEGIPEA [IIAEGIPEA (SEQ ID NO: 227)]
14 | 50 to 75% | FLGSFIDHV [FLGSFIDHV (SEQ ID NO: 26)]
15 | 20 to 50% | YINEDEYEV [YINEDEYEV (SEQ ID NO: 213)]
16 | 20 to 50% | KVMEGTVAA [KVMEGTVAA (SEQ ID NO: 232)]
17 | ≥ 75% | ALVEDIINL [ALVEDIINL (SEQ ID NO: 23)]
18 | ≥ 75% | FLQEWEVYA [FLQEWEVYA (SEQ ID NO: 257)]
19 | 50 to 75% | SLDVYELFL [SLDVYELFL (SEQ ID NO: 235)]
20 | ≥ 75% | VLLESLVEI [VLLESLVEI (SEQ ID NO: 249)]
21 | 20 to 50% | NLQRTVVTV [NLQRTVVTV (SEQ ID NO: 234)]
22 | ≥ 75% | ILSPWGAEV [ILSPWGAEV (SEQ ID NO: 229)]
23 | 50 to 75% | AQFGAVLEV [AQFGAVLEV (SEQ ID NO: 217)]
24 | ≥ 75% | GMWNPNAPVFL [GMWNPNAPVFL (SEQ ID NO: 255)]
25 | 50 to 75% | VLIDDTVLL [VLIDDTVLL (SEQ ID NO: 239)]
26 | ≥ 75% | GILDFXVFL (not fully specified) [GILDFZVFL (SEQ ID NO: 242)]
27 | 50 to 75% | YQYGAVVTL [YQYGAVVTL (SEQ ID NO: 238)]

Row | peptide exchange yield | Binder
28 | 20 to 50% | FLSPLLPLL [FLSPLLPLL (SEQ ID NO: 224)]
29 | 20 to 50% | FIPDFIPAV [FIPDFIPAV (SEQ ID NO: 241)]
30 | 50 to 75% | KVLEMETTV [KVLEMETTV (SEQ ID NO: 247)]
31 | 50 to 75% | RIYPFLLMV [RIYPFLLMV (SEQ ID NO: 258)]
32 | ≥ 75% | GLPDLDIYL [GLPDLDIYL (SEQ ID NO: 243)]
33 | 50 to 75% | VLTNVGAAL [VLTNVGAAL (SEQ ID NO: 250)]
34 | 20 to 50% | QLFEEEIEL [QLFEEEIEL (SEQ ID NO: 215)]
35 | 50 to 75% | YLGDLIMAL [YLGDLIMAL (SEQ ID NO: 252)]
36 | ≥ 75% | FLAPDNSLLLA [FLAPDNSLLLA (SEQ ID NO: 221)]
37 | 50 to 75% | VLYELFTYI [VLYELFTYI (SEQ ID NO: 251)]
38 | 50 to 75% | AVLGFSFRL [AVLGFSFRL (SEQ ID NO: 24)]
39 | 20 to 50% | IIAEYLSYV [IIAEYLSYV (SEQ ID NO: 228)]
40 | ≥ 75% | RLDEAFDFV [RLDEAFDFV (SEQ ID NO: 260)]
41 | 20 to 50% | FLQDIPDGLFL [FLQDIPDGLFL (SEQ ID NO: 223)]
42 | 50 to 75% | FLIETGTLL [FLIETGTLL (SEQ ID NO: 222)]
43 | 50 to 75% | FLDTSNQHLL [FLDTSNQHLL (SEQ ID NO: 25)]
44 | 20 to 50% | GVIDPVPEV [GVIDPVPEV (SEQ ID NO: 226)]
45 | ≥ 75% | SLFDGFFLTA [SLFDGFFLTA (SEQ ID NO: 236)]
46 | 20 to 50% | IMDDDSYGV [IMDDDSYGV (SEQ ID NO: 230)]
47 | ≥ 75% | TVLDGLEFKV [TVLDGLEFKV (SEQ ID NO: 259)]
48 | 50 to 75% | FLFDGSMSL [FLFDGSMSL (SEQ ID NO: 214)]
49 | 50 to 75% | YLDRLIPQA [YLDRLIPQA (SEQ ID NO: 237)]
50 | 50 to 75% | MLEVHIPSV [MLEVHIPSV (SEQ ID NO: 233)]
51 | 50 to 75% | FLIGQGAHV [FLIGQGAHV (SEQ ID NO: 212)]
52 | 50 to 75% | ALVPTPALFYL [ALVPTPALFYL (SEQ ID NO: 240)]
53 | ≥ 75% | YSDDDVPSV [YSDDDVPSV (SEQ ID NO: 253)]
54 | 50 to 75% | ALQETPPQV [ALQETPPQV (SEQ ID NO: 256)]
